This note sets out measurements from paper PMC4717258, “Sulfoxides, Analogues of L-Methionine and L-Cysteine As Pro-Drugs against Gram-Positive and Gram-Negative Bacteria” (Acta Naturae, 2015).

The target in data set [1] is T1, C. sporogenes MGL (Clostridium sporogenes, UniProt A0A7X5SZI3).
T1 construct: gene megL; subunit 43 kDa; PLP enzyme
T1 sequence (A0A7X5SZI3 1-400): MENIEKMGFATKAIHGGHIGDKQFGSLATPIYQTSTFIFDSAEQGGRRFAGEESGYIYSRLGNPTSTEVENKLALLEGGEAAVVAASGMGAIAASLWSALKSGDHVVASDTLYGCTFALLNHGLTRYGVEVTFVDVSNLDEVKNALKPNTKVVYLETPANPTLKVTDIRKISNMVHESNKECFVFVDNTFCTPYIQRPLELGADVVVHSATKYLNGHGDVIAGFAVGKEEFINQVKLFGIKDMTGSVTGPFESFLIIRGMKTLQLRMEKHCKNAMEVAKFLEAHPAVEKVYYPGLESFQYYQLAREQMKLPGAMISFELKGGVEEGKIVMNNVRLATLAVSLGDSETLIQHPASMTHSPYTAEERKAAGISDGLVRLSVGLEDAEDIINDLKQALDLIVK
As to the kind of experiment: inhibition of L-Met γ-elimination, NADH-coupled with D-2-hydroxyisocaproate dehydrogenase, Dixon plot. The data set is classed as biochemical. The source says: inhibition of L-Met γ-elimination, NADH-coupled with D-2-hydroxyisocaproate dehydrogenase, Dixon plot on C. sporogenes MGL

The target in data set [2] is T1, C. sporogenes MGL. As to the kind of experiment: γ-elimination steady-state kinetics, NADH-coupled with D-2-hydroxyisocaproate dehydrogenase, […] nm. The data set is classed as biochemical. To be noted: pH 8.0, 100 mM potassium phosphate, 0.1 mM PLP, 1 mM DTT, 1 mM EDTA, 30 °C.
The target of data set [3] is T1, C. sporogenes MGL. As to the kind of experiment: absorption spectrum of holoenzyme, lognormal deconvolution of internal aldimine bands. The data set is classed as binding. To be noted: covalent internal aldimine; pH 8.0, 25 °C, working buffer without PLP.
Substrate in data set [4]: CCSC[C@H](N)C(=O)O
As to the kind of experiment: purified protein. The data set is classed as biochemical, Clostridium sporogenes. To be noted: pH 8.0, 100 mM potassium phosphate, 0.1 mM PLP, 1 mM DTT, 1 mM EDTA, 30 °C.

Substrate in data set [5]: C[S+]([O-])CC[C@H](N)C(=O)O
The data set can be described thus: purified protein. To be noted: pH 8.0, 100 mM potassium phosphate, 0.1 mM PLP, 1 mM DTT, 1 mM EDTA, 30 °C. The data set is classed as biochemical, Clostridium sporogenes.

Substrate in data set [6]: C=CC[S+]([O-])C[C@H](N)C(=O)O
The data set can be described thus: purified protein. To be noted: pH 8.0, 100 mM potassium phosphate, 0.1 mM PLP, 1 mM DTT, 1 mM EDTA, 30 °C. The data set is classed as biochemical, Clostridium sporogenes.

Substrate in data set [7]: CC(=O)OCC[C@H](N)C(=O)O
As to the kind of experiment: purified protein. The data set is classed as biochemical, Clostridium sporogenes. To be noted: pH 8.0, 100 mM potassium phosphate, 0.1 mM PLP, 1 mM DTT, 1 mM EDTA, 30 °C.

Substrate in data set [8]: CC(=O)OC[C@H](N)C(=O)O
As to the kind of experiment: purified protein. The data set is classed as biochemical, Clostridium sporogenes. To be noted: pH 8.0, 100 mM potassium phosphate, 0.1 mM PLP, 1 mM DTT, 1 mM EDTA, 30 °C.

Substrate in data set [9]: CSCC[C@H](N)C(=O)O
As to the kind of experiment: purified protein. The data set is classed as biochemical, Clostridium sporogenes. To be noted: pH 8.0, 100 mM potassium phosphate, 0.1 mM PLP, 1 mM DTT, 1 mM EDTA, 30 °C.

Substrate in data set [10]: CC[S+]([O-])C[C@H](N)C(=O)O
As to the kind of experiment: purified protein. To be noted: pH 8.0, 100 mM potassium phosphate, 0.1 mM PLP, 1 mM DTT, 1 mM EDTA, 30 °C. The data set is classed as biochemical, Clostridium sporogenes.

Substrate in data set [11]: CC[S+]([O-])CC[C@H](N)C(=O)O
The data set can be described thus: purified protein. The data set is classed as biochemical, Clostridium sporogenes. To be noted: pH 8.0, 100 mM potassium phosphate, 0.1 mM PLP, 1 mM DTT, 1 mM EDTA, 30 °C.

With `CCCC[C@H](N)C(=O)O` [L-Nle], on C. sporogenes MGL [1], the affinity corresponds to a Ki of 0.37 mM.
Regarding `CCSCC[C@H](N)C(=O)O` [S-Et-L-Hcy], at C. sporogenes MGL [2], the Km stood at 240 µM.
The molecule `C[C@H](N)C(=O)O` [L-Ala] yielded a Ki at C. sporogenes MGL [1] of 1.5 mM.
As for `Cc1ncc(COP(=O)(O)O)c(C=O)c1O` [PLP], on C. sporogenes MGL [3], the “absorption spectrum of holoenzyme, lognormal deconvolution of internal aldimine” value was “The ionic form of the internal aldimine and tautomeric equilibrium are almost the same”.
With `CCC[C@H](N)C(=O)O` [L-Nva], the inhibition constant (Ki) on C. sporogenes MGL [1] came to 1.9 mM.
For `CC[C@H](N)C(=O)O` [L-Abu], at C. sporogenes MGL [1], affinity was put at a Ki of 2 mM.

B1: C. sporogenes MGL (Clostridium sporogenes) (protein)
chain: MENIEKMGFATKAIHGGHIGDKQFGSLATPIYQTSTFIFDSAEQGGRRFAGEESGYIYSRLGNPTSTEVENKLALLEGGEAAVVAASGMGAIAASLWSALKSGDHVVASDTLYGCTFALLNHGLTRYGVEVTFVDVSNLDEVKNALKPNTKVVYLETPANPTLKVTDIRKISNMVHESNKECFVFVDNTFCTPYIQRPLELGADVVVHSATKYLNGHGDVIAGFAVGKEEFINQVKLFGIKDMTGSVTGPFESFLIIRGMKTLQLRMEKHCKNAMEVAKFLEAHPAVEKVYYPGLESFQYYQLAREQMKLPGAMISFELKGGVEEGKIVMNNVRLATLAVSLGDSETLIQHPASMTHSPYTAEERKAAGISDGLVRLSVGLEDAEDIINDLKQALDLIVK
notes: subunit 43 kDa; PLP enzyme
Regarding B1, the Km in “purified protein [4]” is 430 µM; in “purified protein [5]”, 11390 µM; in the data set “purified protein [6]” it was 1430 µM; in the data set “purified protein [7]”, 3180 µM; in “purified protein [8]”, 8010 µM; in the data set “purified protein [9]” it was 600 µM. Besides, the Michaelis-Menten constant (Km) in the data set “purified protein [10]” was 330 µM; in the data set “purified protein [11]”, 600 µM. Moreover, the kcat in “purified protein [4]” was determined as 6.53 s⁻¹; in the data set “purified protein [5]”, 21.7 s⁻¹; in “purified protein [6]” it was 11.4 s⁻¹; in the data set “purified protein [7]”, 37.3 s⁻¹; in “purified protein [9]”, 21.6 s⁻¹; in “purified protein [10]” it was 1.39 s⁻¹. In “purified protein [11]”, the kcat amounted to 0.48 s⁻¹. Besides, the kcat/Km turned out to be 15200 M⁻¹ s⁻¹ in the data set “purified protein [4]”; 1900 M⁻¹ s⁻¹ in the data set “purified protein [5]”; 7990 M⁻¹ s⁻¹ in “purified protein [6]”; 11700 M⁻¹ s⁻¹ in the data set “purified protein [7]”; 36000 M⁻¹ s⁻¹ in “purified protein [9]”; 4210 M⁻¹ s⁻¹ in the data set “purified protein [10]”. The kcat/Km in the data set “purified protein [11]” stood at 800 M⁻¹ s⁻¹.
